Patent publication US12070483B2, “Compositions and methods for treatment of acute lung injury” (THE TRUSTEES OF THE UNIVERSITY OF PENNSYLVANIA, priority 2018, dated 2024)

Tests used:
[1] = test system: mouse models of LPS-induced ALI; conditions: previous studies; cited from earlier work
[2] = biological target: T1, recombinant hPrdx6 (Homo sapiens, UniProt P30041); assay: aiPLA2 activity of recombinant human Prdx6 in presence of peptide; format: biochemical; conditions: for aiPLA2 activity of recombinant hPrdx6: Table 1, hPrdx6 only (no peptide) 93.4; for aiPLA2 activity of human recombinant protein: Table 2, hPrdx6 only 92.0; for aiPLA2 activity of human recombinant Prdx6: Table 3, hPrdx6 only 99.91
T1 sequence (P30041 1-224): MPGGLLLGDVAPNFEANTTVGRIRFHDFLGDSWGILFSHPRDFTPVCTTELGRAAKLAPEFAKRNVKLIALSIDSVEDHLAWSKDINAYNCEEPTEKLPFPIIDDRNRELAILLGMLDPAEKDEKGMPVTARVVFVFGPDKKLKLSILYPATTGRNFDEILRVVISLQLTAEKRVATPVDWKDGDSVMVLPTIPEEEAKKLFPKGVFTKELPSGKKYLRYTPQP

[3] = biological target: T2, Prdx6 (Mus musculus, UniProt O08709); assay: aiPLA2 (Prdx6-PLA2) activity of mouse lung homogenate after IT or IV injection of PIP; format: in vivo; conditions: Table 6
T2 construct: from tissue; host or cells: mouse lung homogenate (wild type mice)
T2 sequence (O08709 1-224): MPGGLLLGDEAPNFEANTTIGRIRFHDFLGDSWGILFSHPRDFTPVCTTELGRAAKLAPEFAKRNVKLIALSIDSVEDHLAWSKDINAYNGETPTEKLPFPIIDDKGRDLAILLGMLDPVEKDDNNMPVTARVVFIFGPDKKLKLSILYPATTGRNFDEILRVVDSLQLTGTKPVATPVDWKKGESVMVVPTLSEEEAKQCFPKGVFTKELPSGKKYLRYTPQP
Description: FIG. 6: PIP-2 in liposomes was administered to mice either intratracheally (IT) or intravenously (IV) at 0 time. Lungs were harvested at intervals between 4 and 72 h after the PIP-2 administration, homogenized, and analyzed for Prdx6-PLA2 activity. PIP-2 is effective by either the IT or IV route with a calculated ½ time for recovery of ˜50 h. Results are mean+SE for N=3-4.
PIP-2 in liposomes injected IV or IT inhibits Prdx6 activity of the lung homogenate. Maximal inhibition was seen within 4 hours after administration of PIP-2. Recovery from inhibition began at ˜36 hours and was complete by 48 hours. Results are similar for PIP-1,2,4 (PIP-3 and -5 were not tested). […] Effectiveness requires liposomes for peptide delivery. Inhibition after IT or IV administration was similar.

[4] = test system: NOX2; assay: ROS production (Amplex red) of isolated perfused mouse lung stimulated with angiotensin II; format: in vivo; conditions: mouse, ex_vivo
Description: FIGS. 5A and 5B: PIP-2, incorporated within liposomes, was instilled intratracheally prior to lung isolation. FIG. 5A: Isolated lungs were perfused in a recirculating system with artificial medium. NOX2 activity was stimulated by addition of angiotensin II (Ang II). Amplex red along with horseradish peroxidase were added to the perfusate for detection of ROS production. Aliquots of perfusate were analyzed at intervals by spectrophotometry to determine oxidation of amplex red, indicating ROS production. Results are mean±SE for N=3-4. FIG. 5B: Mice were sacrificed at 6, 12, or 24 h after LPS administration ([…]) and lungs were perfused in situ for 15 min with saline solution containing a fluorophore (difluorofluorescein diacetate, DFFDA). Lungs then were homogenized and fluorescence of the lung homogenate was determined as an index of ROS production. Results for FIG. 5A & FIG. 5B are mean±SE for N=4. *P<0.05 vs corresponding LPS and LPS+PIP-2; § P<0.05 vs 12 h and 24 h LPS; ΔP<0.05 vs corresponding LPS.
FIG. 8: PLA2 inhibitory peptide (PIP-2) inhibits ROS production stimulated by angiotensin II (Ang II) in isolated perfused mouse lung. PIP-2 (2 μg/g body weight) was administered to intact wild type (WT) mice by the IV route. […] After 30 mins, lungs were isolated from anesthesized mice and perfused in a recirculating system with added Ang II ([…]) as a Nox2 activator and Amplex red plus horseradish peroxidase to detect perfusate ROS. WT basal lungs were not stimulated with Ang II. After a 15 min equilibration period (called zero time), aliquots were taken at 15 min intervals for analysis of fluorescence. Each plotted point represents the mean±SE for n=3. The lines were drawn by the least mean squares method. The mean rates of ROS […] calculated from the slope of each line are indicated in parentheses. *P<0.05 vs the other 3 slopes.
FIG. 10: Effect of liposome composition on delivery of PIP-2 to lungs after IV administration. […]
The effect of the PIPs on ROS production in control (untreated) lungs was determined in vitro with isolated perfused lungs. […] The basal rate of ROS production was evaluated with WT lungs that were perfused in the absence of AngII. […] Aliquots of perfusate were taken at 15 min intervals and analyzed by fluorescence for resorufin (λexcitation 568 nm, λemission 581 nm), the product of Amplex red oxidation. The rate of Amplex red oxidation was calculated and expressed as arbitrary fluorescence units (AFU) with normalization to mouse body wt. There was a low rate of Amplex red oxidation in the absence of HRP in the perfusate (˜7% of the AngII-stimulated fluorescence), indicating a non-ROS-mediated oxidation of the fluorophore; this value was subtracted to obtain the reported values.

Compound | aiPLA2 activity of recombinant hPrdx6 [2] [nmol/min/mg prot.] | aiPLA2 activity of human recombinant Prdx6 [2] [nmol/min/mg prot.] | further results
CCCCCCCCCCCCCCCCOCC(COCC(F)(F)F)OP(=O)(O)OC (centres unmarked) [MJ33] |  |  | protection in LPS-induced ALI [1]: protection
DEELQATLHDFRHQIL (Inhibitory peptide.) [PIP-1, 16 residue human peptide] | 45.0 |  | Prdx6-PLA2 activity of mouse lung homogenate ([3]; IT, lungs lavaged prior to assay, 0 post injection): 9.0 ± 0.2 nmol/hr/mg protein; Prdx6-PLA2 activity of mouse lung homogenate ([3]; IT, lungs lavaged, 4 hr post injection): 1.6 ± 0.1 nmol/hr/mg protein; Prdx6-PLA2 activity of mouse lung homogenate ([3]; IT, lungs lavaged, 12 hr post injection): 1.6 ± 0.1 nmol/hr/mg protein; Prdx6-PLA2 activity of mouse lung homogenate ([3]; IT, lungs lavaged, 24 hr post injection): 1.7 ± 0.2 nmol/hr/mg protein; Prdx6-PLA2 activity of mouse lung homogenate ([3]; IT, lungs lavaged, 48 hr post injection): 2.9 ± 0.2 nmol/hr/mg protein; Prdx6-PLA2 activity of mouse lung homogenate ([3]; IV, 0 post injection): 8.8 ± 0.3 nmol/hr/mg protein; Prdx6-PLA2 activity of mouse lung homogenate ([3]; IV, 4 hr post injection): 1.4 nmol/hr/mg protein; Prdx6-PLA2 activity of mouse lung homogenate ([3]; IV, 12 hr post injection): 1.5 nmol/hr/mg protein; Prdx6-PLA2 activity of mouse lung homogenate ([3]; IV, 24 hr post injection): 1.8 ± 0.1 nmol/hr/mg protein
DEELQTEL [SEQ ID NO: 18] | 93.6 |  | 
DEELQTELYEI (Inhibitory peptide.) [SEQ ID NO: 17] | 94.9 |  | 
DEELQTELYEIK (Inhibitory peptide.) [SEQ ID NO: 16] | 95.7 |  | 
DEELQTELYEIKHQ (Inhibitory peptide.) [SEQ ID NO: 15] | 102 |  | 
DEELQTELYEIKHQIL (Inhibitory peptide.) [PIP-3, 16 residue rat, mouse peptide] | 32.0 |  | aiPLA2 activity of recombinant hPrdx6 ([2]; listed as SEQ ID NO: 9): 20.1 nmol/min/mg prot.; aiPLA2 activity of human recombinant protein [2]: 32.0 nmol/min/mg prot.
ELQTELYEIKHQIL (Inhibitory peptide.) [SEQ ID NO: 10] | 33.2 |  | 
ELYEIKHQI (Inhibitory peptide.) [SEQ ID NO: 22] |  |  | aiPLA2 activity of human recombinant protein [2]: 93.5 nmol/min/mg prot.
ELYEIKHQIL (Inhibitory peptide.) [SEQ ID NO: 12] | 28.6 |  | 
IKHQIL (DEELQTELYEIKHQ; Inhibitory peptide.) [SEQ ID NO: 14] | 97.1 |  | 
LFKLEHQIL [SN023] |  | 97.95 | 
LHDFRDQIL [SN024] |  | 102.04 | 
LHDFRHNIL [SN026] |  | 98.97 | 
LHDFRHQI [SEQ ID NO: 21] |  |  | aiPLA2 activity of human recombinant protein [2]: 93.6 nmol/min/mg prot.
LHDFRHQLL (LHDFRHQTL; Inhibitory peptide.) [SN028] |  | 102.45 | 
LHDFRPQIL [SN025] |  | 101.34 | 
LHEFKHQIL [SN022] |  | 99.42 | 
LKIEYHQIL [SN019] |  | 97.67 | 
LRFDHHQIL [SN020] |  | 98.97 | 
LYDIRHQIL (Inhibitory peptide.) [PIP-5] |  | 29.74 | ROS production by AngII-activated NOX2 in the isolated mouse lung [4]: inhibit ROS production
LYEIKHQI [SEQ ID NO: 23] |  |  | aiPLA2 activity of human recombinant protein [2]: 92.1 nmol/min/mg prot.
QTELYEIKHQIL (Inhibitory peptide.) [SEQ ID NO: 11] | 31.5 |  | 
TLHDFRHQI (Inhibitory peptide.) [SEQ ID NO: 20] |  |  | aiPLA2 activity of human recombinant protein [2]: 89.6 nmol/min/mg prot.
TLHDFRHQIL (Inhibitory peptide.) [SEQ ID NO: 19] |  |  | aiPLA2 activity of human recombinant protein [2]: 31.5 nmol/min/mg prot.
YEIKHQIL (Inhibitory peptide.) [SEQ ID NO: 13] | 94.4 |  | 
